The source of these data is article PMC4023160, “Head-to-tail interactions of the coiled-coil domains regulate ClpB activity and cooperation with Hsp70 in protein disaggregation” (eLife, 2014).

Series [1] deals with the molecule itself. Nature of the series: FRET or BRET; Trp (Q427W, donor) to IAEDANS (Q502C, acceptor) between adjacent subunits; low salt buffer A (50 mM Tris pH 7.5, 5 mM MgCl2, 20 mM KCl, 2 mM DTT) without or with 2 mM ATP, 25°C, excitation 290 nm. (In general: Bioluminescence resonance energy transfer reports proximity on the nanometre scale.)
Series [2] deals with the molecule itself. Nature of the series: crystal structure; SeMet protein with ATP (ADP bound), space group P65, one molecule in the asymmetric unit, 3.50 Å.
Series [3] concerns the molecule itself. Nature of the series: cross-linking; disulfide cross-linking: 4 μM ClpB cysteine variant, 25 μM Cu-Phenanthroline, 1 min at room temperature; non-reducing SDS gradient gel (3-8%).
Series [4] deals with the molecule itself. Nature of the series: negative-stain EM single-particle reconstruction; BAP(HAP)-ClpP complexes formed in 20 mM Tris-HCl pH 7.5, 20 mM KCl, 15 mM MgCl2, 1 mM DTT, 2 mM ATPγS; stained with 2% uranyl acetate; side views of 2:2 complexes cut into 1:1 halves; sixfold symmetry imposed or none.

B1: ClpB-Q427W-Q502C-IAEDANS in the tryptophan-free ClpB-W462Y/W543L variant (natural protein)
chain: not shown
modifications: IAEDANS on the cysteine at 502 (Q502C), labelled with efficiencies of 70-80%
notes: ClpB of E. coli; also called wild type ClpB (FRET pair); source: purified (Ni-IDA, size exclusion chromatography Superdex S200); labelled with 1,5-IAEDANS
For B1, the binding result in series [1] is reported as “binds”.

B2: ND truncation of E. coli ClpB (residues 159 to 858; E279A/E432A/E678A), SeMet (domain or fragment)
chain: not shown
modifications: selenomethionine (SeMet)
notes: ClpB of E. coli, residues 159 to 858, without the N-terminal domain; One molecule in the asymmetric unit (P65); monomers form a spiral assembly in the crystal; also called ClpB E279A/E432A/E678A (SeMet) + ATP; E. coli ClpB-E432A (crystal structure); source: purified (Ni-IDA, size exclusion chromatography Superdex S200)
Take B2: the binding result in series [2] was “binds”.

B3: ClpB-K431C-S499C repressed (E432A) variant (natural protein)
chain: not shown
notes: ClpB of E. coli; source: purified (Ni-IDA, size exclusion chromatography Superdex S200); dialyzed to remove DTT
As for B3, in series [3], the binding result was “binds”.

B4: ClpP protease (enzyme)
chain: not shown
notes: ClpP protease; source: purified as described previously (Oguchi et al., 2012); copies: 14
As usually defined, the stoichiometry N is a count of units in the complex or per binding partner. B4: the “stoichiometry N” value in series [4] is 14.

B5: ClpB-Q427W-Q502C-IAEDANS (W462Y/W543L) with E432A (natural protein)
chain: not shown
modifications: IAEDANS on the cysteine at 502 (Q502C), labelled with efficiencies of 70-80%
notes: ClpB of E. coli; also called E432A (FRET pair); source: purified (Ni-IDA, size exclusion chromatography Superdex S200); labelled with 1,5-IAEDANS
In the case of B5, the binding result in series [1] is “binds”.

B6: ClpB-K431C-S499C hyperactive (Y503D) variant (natural protein)
chain: not shown
notes: as for B3
As to B6, the binding result in series [3] was “binds”.
